This note sets out measurements from US20150104448A1 (TRUE NORTH THERAPEUTICS, published 2015).

B1: VH1/Vk2 (antibody, V domains shown)
VH: EVMLVESGGGLVKPGGSLRLSCAASGFTFSNYAMSWVRQAPGKGLEWVATISSGGSHTYYLDSVKGRFTISRDNSKDTLYLQMSSLRAEDTALYYCARLFTGYAMDYWGQGTSVTVSS
VL: QIVLTQSPATLSLSPGERATMSCTASSSVSSSYLHWYQQKPGKAPKLWIYSTSNLASGVPSRFSGSGSGTDYTLTISSLQPEDFATYYCHQYYRLPPITFGQGTKLEIK
notes: member of group m7; also called VH1/Vκ2; VH variant 1 + Vk variant 2
B2: VH3/Vk2 (antibody, V domains shown)
VH: B1 VH
VL: B1 VL
notes: member of group m7; also called VH3/Vκ2; VH variant 3 + Vk variant 2
B3: VH2/Vk2 (antibody, V domains shown)
VH: B1 VH with S84N, S113L
VL: B1 VL
notes: member of group m7; also called VH2/Vκ2; VH variant 2 + Vk variant 2
B4: VH1/Vk1 (antibody, V domains shown)
VH: B1 VH
VL: B1 VL with T10I, D71F, P81A
notes: member of group m7; also called VH1/Vκ1; VH variant 1 + Vk variant 1
B5: VH4/Vk3 (antibody, V domains shown)
VH: B1 VH with M3Q, D77N, S84N, S113L
VL: B1 VL with M21L
notes: member of group m7; also called VH4/Vκ3; VH variant 4 + Vk variant 3
B6: VH2/Vk1 (antibody, V domains shown)
VH: B1 VH with S84N, S113L
VL: B1 VL with T10I, D71F, P81A
notes: member of group m7; also called VH2/Vκ1; VH variant 2 + Vk variant 1
B7: VH4/Vk2 (antibody, V domains shown)
VH: B1 VH with M3Q, D77N, S84N, S113L
VL: B1 VL
notes: member of group m7; also called VH4/Vκ2; VH variant 4 + Vk variant 2
B8: VH3/Vk1 (antibody, V domains shown)
VH: B1 VH
VL: B1 VL with T10I, D71F, P81A
notes: member of group m7; also called VH3/Vκ1; VH variant 3 + Vk variant 1
B9: VH4/Vk1 (antibody, V domains shown)
VH: B1 VH with M3Q, D77N, S84N, S113L
VL: B1 VL with T10I, D71F, P81A
notes: member of group m7; also called VH4/Vκ1; VH variant 4 + Vk variant 1
B10: VH3/Vk3 (antibody, V domains shown)
VH: B1 VH
VL: B1 VL with M21L
notes: member of group m7; also called VH3/Vκ3; VH variant 3 + Vk variant 3
B11: VH1/Vk3 (antibody, V domains shown)
VH: B1 VH
VL: B1 VL with M21L
notes: member of group m7; also called VH1/Vκ3; VH variant 1 + Vk variant 3
B12: VH2/Vk3 (antibody, V domains shown)
VH: B1 VH with S84N, S113L
VL: B1 VL with M21L
notes: member of group m7; also called VH2/Vκ3; VH variant 2 + Vk variant 3

Residue numbers refer to the chain shown, from its start.

One experiment concerns the target T1, Inactive-C1s (Homo sapiens, UniProt P09871).
T1 construct: proenzyme (pro-C1s); also called pro-C1s
T1 sequence (single chain, looked up): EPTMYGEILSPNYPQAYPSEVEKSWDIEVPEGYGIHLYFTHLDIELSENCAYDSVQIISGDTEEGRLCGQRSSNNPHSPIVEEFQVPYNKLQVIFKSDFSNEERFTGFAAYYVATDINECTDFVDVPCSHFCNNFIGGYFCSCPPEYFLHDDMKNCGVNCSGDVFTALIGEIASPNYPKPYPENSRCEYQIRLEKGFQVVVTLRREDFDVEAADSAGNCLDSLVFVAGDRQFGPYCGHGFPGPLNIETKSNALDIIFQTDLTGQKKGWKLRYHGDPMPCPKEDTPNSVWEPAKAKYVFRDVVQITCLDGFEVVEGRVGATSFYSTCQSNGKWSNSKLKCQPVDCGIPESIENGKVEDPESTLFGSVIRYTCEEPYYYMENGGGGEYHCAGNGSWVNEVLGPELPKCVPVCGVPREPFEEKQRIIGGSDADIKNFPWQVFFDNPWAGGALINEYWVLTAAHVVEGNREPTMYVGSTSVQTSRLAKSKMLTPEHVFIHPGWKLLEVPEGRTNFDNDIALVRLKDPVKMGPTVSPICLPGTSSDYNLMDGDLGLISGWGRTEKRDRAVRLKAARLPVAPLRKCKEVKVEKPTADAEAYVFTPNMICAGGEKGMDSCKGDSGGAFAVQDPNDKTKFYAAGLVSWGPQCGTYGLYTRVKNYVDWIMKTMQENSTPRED
Description: kinetic binding measurement, method not stated; Table 10, pro-C1s.
In general, Kd refers to the free concentration of one partner at which half of the binding sites on the other are occupied at equilibrium, for simple one-to-one binding. Higher therefore signals a looser complex. Broadly, the koff is the first-order rate constant of dissociation. A high value points to a short-lived complex. The term kon denotes the second-order rate constant of association. High values mean faster complex formation, low ones slower complex formation. Molecule B1 gave a Kd of 0.229 nM, a koff of 0.000249 s⁻¹ and a kon of 1.09e+06 M⁻¹ s⁻¹.
In turn, B2 had a Kd of 0.291 nM, a koff of 0.000315 s⁻¹ and an on-rate constant (kon) of 1.08e+06 M⁻¹ s⁻¹.
For B3 the same measures were 0.271 nM, 0.000269 s⁻¹ and 993000 M⁻¹ s⁻¹.
For B4 the same measures were 0.191 nM, 0.000198 s⁻¹ and 1.04e+06 M⁻¹ s⁻¹.
As to B5, the Kd was 0.278 nM, the koff stood at 0.000306 s⁻¹ and the kon stood at 1.1e+06 M⁻¹ s⁻¹.
For B6 the same measures were 0.252 nM, 0.000262 s⁻¹ and 1.04e+06 M⁻¹ s⁻¹.
B7 yielded a Kd of 0.262 nM, a koff of 0.000263 s⁻¹ and a kon of 1.01e+06 M⁻¹ s⁻¹.
In turn, B8 yielded a Kd of 0.252 nM, a koff of 0.000255 s⁻¹ and an association rate constant (kon) of 1.02e+06 M⁻¹ s⁻¹.
Turning to B9, the affinity, expressed as Kd, was 0.291 nM; the koff amounted to 0.000319 s⁻¹; the on-rate constant (kon) turned out to be 1.1e+06 M⁻¹ s⁻¹.
For B10 the same measures were 0.331 nM, 0.000351 s⁻¹ and 1.06e+06 M⁻¹ s⁻¹.
For B11 the same measures were 0.303 nM, 0.000285 s⁻¹ and 941000 M⁻¹ s⁻¹.
For B12 the same measures were 0.284 nM, 0.000275 s⁻¹ and 968000 M⁻¹ s⁻¹.

In a further experiment the target is T2, purified human activated C1s protein, two-chain form (Homo sapiens, UniProt P09871 16-688).
T2 construct: Also used here for C1s acting in human serum assays; also called human C1s; active C1s
T2 sequence: T1 sequence (single chain, looked up)
Put plainly: kinetic binding measurement, method not stated; Table 9, activated C1s.
As to B1, the equilibrium dissociation constant (Kd) came out at 0.262 nM, the koff was 0.000274 s⁻¹ and the on-rate constant (kon) worked out at 1.05e+06 M⁻¹ s⁻¹.
On the same counts, the results for B2 are 0.274 nM, 0.000311 s⁻¹ and 1.13e+06 M⁻¹ s⁻¹.
On the same counts, the results for B3 are 0.273 nM, 0.00028 s⁻¹ and 1.03e+06 M⁻¹ s⁻¹.
For B4 the same measures were 0.235 nM, 0.000228 s⁻¹ and 973000 M⁻¹ s⁻¹.
In the case of B5, the Kd was 0.298 nM, the koff is 0.00031 s⁻¹ and the association rate constant (kon) worked out at 1.04e+06 M⁻¹ s⁻¹.
Turning to B6, the Kd is 0.256 nM, the koff amounted to 0.000274 s⁻¹ and the kon is 1.07e+06 M⁻¹ s⁻¹.
For the molecule B7, binding was put at a Kd of 0.262 nM, the koff worked out at 0.000264 s⁻¹ and the kon turned out to be 1e+06 M⁻¹ s⁻¹.
B8: binding was put at a Kd of 0.246 nM, the dissociation rate constant (koff) was determined as 0.000254 s⁻¹ and the kon is 1.03e+06 M⁻¹ s⁻¹.
For B9 the same measures were 0.228 nM, 0.000271 s⁻¹ and 1.19e+06 M⁻¹ s⁻¹.
For B10 the same measures were 0.335 nM, 0.00036 s⁻¹ and 1.08e+06 M⁻¹ s⁻¹.
On the same counts, the results for B11 are 0.376 nM, 0.000343 s⁻¹ and 914000 M⁻¹ s⁻¹.
For the molecule B12, the affinity, expressed as Kd, was 0.296 nM; the koff worked out at 0.000281 s⁻¹; the on-rate constant (kon) stood at 948000 M⁻¹ s⁻¹.
